Results taken from US20230242601A1, “PEPTIDE USED TO PREVENT OR TREAT SYNUCLEINOPATHY” (TOHOKU UNIVERSITY, priority 2020, published 2023).

B1: SynP130-140 peptide (peptide)
peptide: EEGYQDYEPEA
B2: SynP130-140 Y133F/Y136F (peptide)
peptide: EEGFQDFEPEA
B3: SynP130-140 Y133F (peptide)
peptide: EEGFQDYEPEA

Biological target: FABP3 fused with a His-tag at the N-terminus
Assay: QCM, peptide added to immobilised FABP3

FABP3 fused with a His-tag at the N-terminus, sequence (P05413 2-133): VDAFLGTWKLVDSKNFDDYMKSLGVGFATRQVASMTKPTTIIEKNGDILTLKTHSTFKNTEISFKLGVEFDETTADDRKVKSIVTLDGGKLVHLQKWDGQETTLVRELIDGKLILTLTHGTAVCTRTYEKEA

| Binder | Kd [nM] | fold stronger binding affinity against the natural SynP130-140 [fold] |
| --- | --- | --- |
| B1 | 0.2 | – |
| B2 | – | 2 |
| B3 | 0.1 | 2 |
